To fix the notation:
B1: Acetyl-CoA carboxylase carboxyltransferase subunit AccA (enzyme)
chain: MSLNFLDFEQPIAELEAKIDSLTAVSRQDEKLDINIDEEVHRLREKSVELTRKIFADLGAWQIAQLARHPQRPYTLDYVRLAFDEFDELAGDRAYADDKAIVGGIARLDGRPVMIIGHQKGRETKEKIRRNFGMPAPEGYRKALRLMQMAERFKMPIITFIDTPGAYPGVGAEERGQSEAIARNLREMSRLGVPVVCTVIGEGGSGGALAIGVGDKVNMLQYSTYSVISPEGCASILWKSADKAPLAAEAMGIIAPRLKELKLIDSIIPEPLGGAHRNPEAMAASLKAQLLADLADLDVLSTEDLKNRRYQRLMSYGYA
B2: Acetyl-CoA carboxylase carboxyltransferase subunit AccD (enzyme, E. coli, UniProt P0A9Q5 1-304, looked up)
chain: MSWIERIKSNITPTRKASIPEGVWTKCDSCGQVLYRAELERNLEVCPKCDHHMRMTARNRLHSLLDEGSLVELGSELEPKDVLKFRDSKKYKDRLASAQKETGEKDALVVMKGTLYGMPVVAAAFEFAFMGGSMGSVVGARFVRAVEQALEDNCPLICFSASGGARMQEALMSLMQMAKTSAALAKMQERGLPYISVLTDPTMGGVSASFAMLGDLNIAEPKALIGFAGPRVIEQTVREKLPPGFQRSEFLIEKGAIDMIVRRPEMRLKLASILAKLMNLPAPNPEAPREGVVVPPVPDQEPEA

Experiment [1] deals with Biotin carboxylase AccC (E. coli, UniProt P24182 1-449). The experiment is described as follows: SEC. (In general: Size exclusion chromatography separates by hydrodynamic size, large species first.)
Experiment [2] has as its target B1. The experiment is described as follows: cryo-EM structure.

This note sets out measurements from article PMC11160672 (bioRxiv, 2024).

For B1, the “stoichiometry N” value in experiment [1] is ~1. As for B2, the “stoichiometry N” value in experiment [1] was ~1. In experiment [2], the binding result is “binds”.

One may read the stoichiometry N as the number of molecules, sites or subunits per partner or assembly.
